From patent publication US20180371086A1 (Gilead, published 2018)
Residue numbers refer to the chain shown, from its start.

Key:
[1] = biological target: T1, HIV-1 Env gp120 of virus WITO, on infected cells (HIV-1); test: cell-based or functional assay
[2] = biological target: HIV-1 Env gp120 of virus CH058, on infected cells (HIV-1); test: cell-based or functional assay
[3] = biological target: HIV-1 Env gp120 of virus 92US727, on infected cells (HIV-1); test: cell-based or functional assay
[4] = biological target: HIV-1 Env gp120 of virus 1489, on infected cells (HIV-1); test: cell-based or functional assay
[5] = biological target: HIV-1 Env gp120 of virus 7015, on infected cells (HIV-1); test: cell-based or functional assay
[6] = biological target: HIV-1 Env gp120 of virus 7552, on infected cells (HIV-1); test: cell-based or functional assay
[7] = biological target: T1, HIV-1 Env gp120 of virus WITO, on …; test: cell-based or functional assay; remark: listed apart in the source
[8] = biological target: gp120 (HT593) expressed on human embryonic kidney (HEK) cells (HIV-1); test: cell-based or functional assay
[9] = biological target: HIV-1 Env of subtype B isolate 92US727 (HIV-1); test: cell-based or functional assay
[10] = biological target: HIV-1 Env of subtype B isolate 92US712 (HIV-1); test: cell-based or functional assay
[11] = biological target: HIV-1 Env of the lab adapted HIV-1 BaL strain (HIV-1); test: cell-based or functional assay
[12] = biological target: HIV-1 Env of subtype B isolate 93HT593 (HIV-1); test: cell-based or functional assay
[13] = biological target: HIV-1 Env of subtype B isolate 92US657 (HIV-1); test: cell-based or functional assay
[14] = biological target: T2, Human FcRn (human, UniProt P55899 24-297; P61769 21-119); test: ELISA, FcRn coated on plate, pH 6.0
T2 construct: also called neonatal Fc receptor
Method: (§1) The binding of antibodies to FcRn of various antibody variants at different pHs was determined. A 96-well Maxisorp plate was coated with 100 ul of 5 μg/ml FcRn. The plate was incubated overnight at 4° C., and then blocked with 4% skim milk for 2 hr at room temperature after washing 3 times with 0.05% Tween 20 washing buffer. […] The plate was then washed 3 times and 100 μL of Fab-anti-human Fab-HRP or Goat anti-human IgG-HRP secondary antibody diluted in 4% skimmed milk was added. Plates were then incubated 50 min at room temperature, washed three times, and 100 μL fresh TMB substrate was added. Plates were developed for 3 minutes on bench with gentle shaking. Plate was quenched with 100 μL 1M HCl, shaken briefly, read at A450 on a spectramax m5 plate reader.

[15] = biological target: T2, Human FcRn; test: ELISA, FcRn coated on plate; ratio of EC50 at pH 7.0 to pH 6.0
Method: as §1

[16] = biological target: T2, Human FcRn; test: ELISA, FcRn coated on plate; pH 7.0/6.0 ratio against that of PGT121
Method: as §1

[17] = biological target: T2, Human FcRn; test: ELISA, FcRn coated on plate, pH 7.0
Method: as §1

[18] = biological target: HIV-1 Env of subtype B isolate MGRM-B-106 (HIV-1); test: cell-based or functional assay
[19] = biological target: HIV-1 Env of subtype B isolate MGRM-B-112 (HIV-1); test: cell-based or functional assay
[20] = biological target: HIV-1 Env of subtype B isolate MGRM-B-136 (HIV-1); test: cell-based or functional assay
[21] = biological target: HIV-1 Env of subtype B isolate MGRM-B-111 (HIV-1); test: cell-based or functional assay
[22] = biological target: HIV-1 Env of subtype B isolate MGRM-B-132 (HIV-1); test: cell-based or functional assay
[23] = biological target: HIV-1 Env of subtype B isolate MGRM-B-118 (HIV-1); test: cell-based or functional assay
[24] = biological target: HIV-1 Env of subtype B isolate MGRM-B-105 (HIV-1); test: cell-based or functional assay
[25] = biological target: HIV-1 Env of subtype B isolate MGRM-B-115 (HIV-1); test: cell-based or functional assay
[26] = biological target: HIV-1 Env of subtype B isolate MGRM-B-110 (HIV-1); test: cell-based or functional assay
[27] = biological target: HIV-1 Env of subtype B virus 15-101757 (HIV-1); test: cell-based or functional assay
[28] = biological target: HIV-1 Env of subtype B virus 15-124934 (HIV-1); test: cell-based or functional assay
[29] = biological target: HIV-1 Env of subtype B virus 15-124950 (HIV-1); test: cell-based or functional assay
[30] = biological target: HIV-1 Env of subtype B virus 15-124975 (HIV-1); test: cell-based or functional assay
[31] = biological target: HIV-1 Env of subtype B virus 15-124962 (HIV-1); test: cell-based or functional assay
[32] = biological target: HIV-1 Env of subtype B virus 15-124964 (HIV-1); test: cell-based or functional assay
[33] = biological target: HIV-1 Env of subtype B virus 15-124904 (HIV-1); test: cell-based or functional assay
[34] = biological target: HIV-1 Env of subtype B virus 15-102514 (HIV-1); test: cell-based or functional assay
[35] = biological target: HIV-1 Env of subtype B virus 15-124918 (HIV-1); test: cell-based or functional assay
[36] = biological target: HIV-1 Env of subtype B virus 15-124906 (HIV-1); test: cell-based or functional assay
[37] = biological target: HIV-1 Env of subtype B virus 15-124963 (HIV-1); test: cell-based or functional assay
[38] = biological target: HIV-1 Env of subtype B virus 15-101608 (HIV-1); test: cell-based or functional assay
[39] = biological target: HIV-1 Env of subtype B virus 15-124986 (HIV-1); test: cell-based or functional assay
[40] = biological target: HIV-1 Env of subtype B virus 15-124970 (HIV-1); test: cell-based or functional assay
[41] = biological target: HIV-1 Env of subtype B virus 15-124914 (HIV-1); test: cell-based or functional assay
[42] = biological target: HIV-1 Env of subtype B virus 15-124987 (HIV-1); test: cell-based or functional assay

T2 sequence (P55899 24-297 limits assumed, chain 1 of 2): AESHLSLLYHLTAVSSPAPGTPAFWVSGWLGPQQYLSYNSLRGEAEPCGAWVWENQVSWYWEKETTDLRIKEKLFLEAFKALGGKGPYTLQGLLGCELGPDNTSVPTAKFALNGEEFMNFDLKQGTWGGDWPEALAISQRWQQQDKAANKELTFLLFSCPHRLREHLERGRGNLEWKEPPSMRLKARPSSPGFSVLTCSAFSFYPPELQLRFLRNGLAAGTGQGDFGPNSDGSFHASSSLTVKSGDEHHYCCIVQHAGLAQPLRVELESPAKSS
T2 sequence (P61769 21-119 limits assumed, chain 2 of 2): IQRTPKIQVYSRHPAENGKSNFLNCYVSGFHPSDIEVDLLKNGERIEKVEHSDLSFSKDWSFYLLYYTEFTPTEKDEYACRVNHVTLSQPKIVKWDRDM

B1: Exemplary gp120×CD3 Duobody® (bispecific antibody, human IgG1, lambda)
heavy 1: QMQLQESGPGLVKPSETLSLTCSVSGASISDSYWSWIRRSPGKGLEWIGYVHKSGDTNYNPSLKSRVHLSLDTSKNQVSLSLTGVTAADSGKYYCARTLHGRRIYGIVAFNEWFTYFYMDVWGTGTQVTVSSASTKGPSVFPLAPSSKSTSGGTAALGCLVKDYFPEPVTVSWNSGALTSGVHTFPAVLQSSGLYSLSSVVTVPSSSLGTQTYICNVNHKPSNTKVDKRVEPKSCDKTHTCPPCPAPEFEGGPSVFLFPPKPKDTLMISRTPEVTCVVVAVSHEDPEVKFNWYVDGVEVHNAKTKPREEQYNSTYRVVSVLTVLHQDWLNGKEYKCKVSNKALPAPIEKTISKAKGQPREPQVYTLPPSREEMTKNQVSLTCLVKGFYPSDIAVEWESNGQPENNYKTTPPVLDSDGSFFLYSRLTVDKSRWQQGNVFSCSVMHEALHNHYTQKSLSLSPGK
light 1: not shown
heavy 2: not shown
light 2: not shown
- killing EC50; HIV-infected CD4 T cells (WITO); effector cells Eff Memory CD4 [1]: 0.02 µg/mL
- killing EC50; HIV-infected CD4 T cells (WITO); effector cells Memory CD4 [1]: 0.02 µg/mL
- killing EC50; HIV-infected CD4 T cells (WITO); effector cells Memory CD8 [1]: 0.02 µg/mL
- killing EC50; HIV-infected CD4 T cells (WITO); effector cells Naïve CD4 [1]: 0.03 µg/mL
- killing EC50; HIV-infected CD4 T cells (WITO); effector cells γ Δ CD4 [1]: 0.09 µg/mL
- Potency (IC50) of killing HIV-infected cells; PBMC-derived effector cells; donor 1003277; virus CHO58 [2]: 2 ng/mL
- Potency (IC50) of killing HIV-infected cells; PBMC-derived effector cells; donor 1004344; virus CHO58 [2]: 1 ng/mL
- Potency (IC50) of killing HIV-infected cells; tonsil-derived effector cells; donor 1003277; virus CHO58 [2]: 0.024 µg/mL
- Potency (IC50) of killing HIV-infected cells; tonsil-derived effector cells; donor 1004344; virus CHO58 [2]: 0.031 µg/mL
- Potency (IC50) of killing HIV-infected cells; PBMC-derived effector cells; donor 1004344; virus 92US727 [3]: 0.012 µg/mL
- Potency (IC50) of killing HIV-infected cells; tonsil-derived effector cells; donor 1004344; virus 92US727 [3]: 0.051 µg/mL
- killing EC50; HIV-infected CEM-NKr-CCR5-LucR CD4 T cells; PBMC donor 4176; virus 1489 [4]: 0.028 µg/mL
- killing EC50; HIV-infected CEM-NKr-CCR5-LucR CD4 T cells; PBMC donor 4288; virus 1489 [4]: 5 ng/mL
- killing EC50; HIV-infected CEM-NKr-CCR5-LucR CD4 T cells; PBMC donor 4176; virus 7015 [5]: 1.04 µg/mL
- killing EC50; HIV-infected CEM-NKr-CCR5-LucR CD4 T cells; PBMC donor 4288; virus 7015 [5]: 0.446 µg/mL
- killing EC50; HIV-infected CEM-NKr-CCR5-LucR CD4 T cells; PBMC donor 4176; virus 7552 [6]: 0.038 µg/mL
- killing EC50; HIV-infected CEM-NKr-CCR5-LucR CD4 T cells; PBMC donor 4288; virus 7552 [6]: 3 ng/mL
- killing EC50; HIV-infected CEM-NKr-CCR5-LucR CD4 T cells; PBMC donor 4176; virus WITO [7]: 0.248 µg/mL
- killing EC50; HIV-infected CEM-NKr-CCR5-LucR CD4 T cells; PBMC donor 4288; virus WITO [7]: 0.046 µg/mL

B2: Variant 2 (DS -> DF) (antibody, human IgG1, lambda, V domains shown)
VH: QMQLQESGPGLVKPSETLSLTCSVSGASISDSYWSWIRRSPGKGLEWIGYVHKSGDTNYNPSLKSRVHLSLDTSKNQVSLSLTGVTAADSGKYYCARTLHGRRIYGIVAFNEWFTYFYMDVWGTGTQVTVSS
VL: SDISVAPGETARISCGEKSLGSRAVQWYQHRAGQAPSLIIYNNQDRPSGIPERFSGSPDFRPGTTATLTITSVEAGDEADYYCHIWDSRVPTKWVFGGGTTLTVLG
- % ADCC Activity (ADCC reporter cell based assay; sample stressed at 25° C. for 4 weeks, relative to its untreated control) [8]: 96%

B3: Variant 3 (DS->DT) (antibody, human IgG1, lambda, V domains shown)
VH: B2 VH
VL: B2 VL with F60T
- % ADCC Activity (ADCC reporter cell based assay; sample stressed at 25° C. for 4 weeks, relative to its untreated control) [8]: 104%

B4: Variant 4 (DS->GS) (antibody, human IgG1, lambda, V domains shown)
VH: B2 VH
VL: B2 VL with D59G, F60S
- % ADCC Activity (ADCC reporter cell based assay; sample stressed at 25° C. for 4 weeks, relative to its untreated control) [8]: 95%

B5: Variant 1 (DS -> DY) (antibody, human IgG1, lambda, V domains shown)
VH: B2 VH
VL: B2 VL with F60Y
- % ADCC Activity (ADCC reporter cell based assay; sample stressed at 25° C. for 4 weeks, relative to its untreated control) [8]: 100%

B6: PGT121.56 (antibody, human IgG1, lambda)
heavy: QMQLQESGPGLVKPSETLSLTCSVSGASISDSYWSWIRRSPGKGLEWIGYVHKSGDTNYSPSLKSRVNLSLDTSKNQVSLSLVAATAADSGKYYCARTLHGRRIYGIVAFNEWFTYFYMDVWGNGTQVTVSSASTKGPSVFPLAPSSKSTSGGTAALGCLVKDYFPEPVTVSWNSGALTSGVHTFPAVLQSSGLYSLSSVVTVPSSSLGTQTYICNVNHKPSNTKVDKKVEPKSCDKTHTCPPCPAPELLAGPDVFLFPPKPKDTLMISRTPEVTCVVVDVSHEDPEVKFNWYVDGVEVHNAKTKPREEQYNSTYRVVSVLTVLHQDWLNGKEYKCKVSNKALPLPEEKTISKAKGQPREPQVYTLPPSREEMTKNQVSLTCLVKGFYPSDIAVEWESNGQPENNYKTTPPVLDSDGSFFLYSKLTVDKSRWQQGNVFSCSVLHEALHSHYTQKSLSLSPGK
light: not shown
- Neutralization potency, IC50 [9]: 11 ng/mL
- Neutralization potency, IC50 [10]: 0.019 µg/mL
- Neutralization potency, IC50 [11]: 0.02 µg/mL
- Neutralization potency, IC50 [12]: 0.164 µg/mL
- Neutralization potency, IC50 [13]: 0.142 µg/mL

B7: PGT121.56 (antibody, human IgG1, lambda)
heavy: B6 heavy
light: not shown
- EC50 [14]: 0.47 nM
- Ratio pH 7.0/6.0 [15]: 217
- Fold vs PGT121 [16]: 7 fold
- EC50 [17]: 102 nM

B8: PGT121.60 hIgG1/hLambda (antibody, V domains shown)
VH: B2 VH
VL: B2 VL with F60S
- Neutralization potency, IC50 [9]: 7 ng/mL
- Neutralization potency, IC50 [10]: 0.008 µg/mL
- Neutralization potency, IC50 [11]: 0.007 µg/mL
- Neutralization potency, IC50 [12]: 0.141 µg/mL
- Neutralization potency, IC50 [13]: 0.062 µg/mL
- Neutralization activity, IC50 [18]: 1 ng/mL
- Neutralization activity, IC50 [19]: 5.8 ng/mL
- Neutralization activity, IC50 [20]: 7.1 ng/mL
- Neutralization activity, IC50 [21]: 0.955 µg/mL
- Neutralization activity, IC50 [22]: 7.7 ng/mL
- Neutralization activity, IC50 [23]: 3.31 µg/mL
- Neutralization activity, IC50 [24]: 7.6 ng/mL
- Neutralization activity, IC50 [25]: 0.141 µg/mL
- Neutralization activity, IC50 [26]: 0.0113 µg/mL
- Neutralization potency, IC50 [27]: 0.0132 µg/mL
- Neutralization potency, IC50 [28]: 0.797 µg/mL
- Neutralization potency, IC50 [29]: 0.0995 µg/mL
- Neutralization potency, IC50 [30]: 0.105 µg/mL
- Neutralization potency, IC50 [31]: 0.0277 µg/mL
- Neutralization potency, IC50 [32]: 2.6 ng/mL
- Neutralization potency, IC50 [33]: 0.0121 µg/mL
- Neutralization potency, IC50 [34]: 0.0128 µg/mL
- Neutralization potency, IC50 [35]: 1.8 ng/mL
- Neutralization potency, IC50 [36]: 0.0103 µg/mL
- Neutralization potency, IC50 [37]: 2.05 µg/mL
- Neutralization potency, IC50 [38]: 1.84 µg/mL
- Neutralization potency, IC50 [39]: 1.5 ng/mL
- Neutralization potency, IC50 [40]: 0.0285 µg/mL
- Neutralization potency, IC50 [41]: 2 ng/mL
- Neutralization potency, IC50 [42]: 0.0163 µg/mL
